Experimental findings from doi:10.1101/2024.10.02.616253 (bioRxiv, 2024) are described below.

The test concerns the target BTN3A1 ectodomain (human, UniProt O00481). Put plainly: SPR. In general terms: SPR reads the build-up and loss of mass on a sensor chip optically.

Sequence of BTN3A1 ectodomain (O00481 30-254): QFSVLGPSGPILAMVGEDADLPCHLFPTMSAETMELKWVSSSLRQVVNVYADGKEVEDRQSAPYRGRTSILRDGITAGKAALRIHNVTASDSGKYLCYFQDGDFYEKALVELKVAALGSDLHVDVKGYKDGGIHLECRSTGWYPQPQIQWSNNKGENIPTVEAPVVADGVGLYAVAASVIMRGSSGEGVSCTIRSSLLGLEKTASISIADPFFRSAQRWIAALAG

B1: TH001 monoclonal antibody (antibody, V domains shown)
VH: EVHVKQSGAELARPGTSVKLSCKASGYTFTDYYLNWVKQRTGQGLEWIGEIYPGGGNTYYNEKFKGKATLTADKSSSTAYMQLSSLTSEDSAVYFCARRTTVVGDYWGQGTTLTVSS
VL: DVLMTQTPLSLPVSLGDQASISCRSSQSIVNSKGNTYLEWYVQKPGQSPKLLIYKVSNRFSGVPDRFSGSGSGTDFTLKISRVEAEDLGVYYCFQGSHVPWTFGGGTKLEIK
Take B1: the binding result is “binds”.
